In US20160272694A1:

Key:
EDI200 (human) [1] = test: bridging ECL (biotin-EDI200/SulfoTag-EDI200) in NHP serum; plate NCO 129.4
EDI200 (human) [2] = test: bridging ECL in NHP serum; Renzo-1 7.81 ng/mL with 1 µg/mL free EDI200 as competitor
EDI200 (human) [3] = test: bridging ECL in NHP serum; Renzo-1 250 ng/mL, signal with 1 µg/mL free EDI200 over signal without (Table 17)
EDI200 (human) [4] = test: bridging ECL in NHP serum; Renzo-1 250 ng/mL with 1 µg/mL free EDI200 as competitor
EDI200 (human) [5] = test: bridging ECL (biotin-EDI200/SulfoTag-EDI200) in NHP serum; Renzo-1 31.25 ng/mL
EDI200 (human) [6] = test: bridging ECL (biotin-EDI200/SulfoTag-EDI200) in NHP serum; Renzo-1 15.63 ng/mL
EDI200 (human) [7] = test: bridging ECL in NHP serum; Renzo-1 7.81 ng/mL, signal with 1 µg/mL free EDI200 over signal without (Table 17)
EDI200 (human) [8] = test: bridging ECL in NHP serum; Renzo-1 62.5 ng/mL, signal with 1 µg/mL free EDI200 over signal without (Table 17)
EDI200 (human) [9] = test: bridging ECL in NHP serum; Renzo-1 125 ng/mL with 1 µg/mL free EDI200 as competitor
EDI200 (human) [10] = test: bridging ECL in NHP serum; Renzo-1 500 ng/mL, signal with 1 µg/mL free EDI200 over signal without (Table 17)
EDI200 (human) [11] = test: bridging ECL (biotin-EDI200/SulfoTag-EDI200) in NHP serum; Renzo-1 7.81 ng/mL
EDI200 (human) [12] = test: bridging ECL (biotin-EDI200/SulfoTag-EDI200) in NHP serum; Renzo-1 250 ng/mL
EDI200 (human) [13] = test: bridging ECL (biotin-EDI200/SulfoTag-EDI200) in NHP serum; Renzo-1 125 ng/mL
EDI200 (human) [14] = test: bridging ECL in NHP serum; Renzo-1 62.5 ng/mL with 1 µg/mL free EDI200 as competitor
EDI200 (human) [15] = test: bridging ECL in NHP serum; Renzo-1 500 ng/mL with 1 µg/mL free EDI200 as competitor; plate NCO 129.4
EDI200 (human) [16] = test: bridging ECL (biotin-EDI200/SulfoTag-EDI200) in NHP serum; Renzo-1 500 ng/mL; plate NCO 129.4
EDI200 (human) [17] = test: bridging ECL in NHP serum; Renzo-1 15.63 ng/mL with 1 µg/mL free EDI200 as competitor
EDI200 (human) [18] = test: bridging ECL in NHP serum; Renzo-1 31.25 ng/mL with 1 µg/mL free EDI200 as competitor
EDI200 (human) [19] = test: bridging ECL in NHP serum; Renzo-1 31.25 ng/mL, signal with 1 µg/mL free EDI200 over signal without (Table 17)
EDI200 (human) [20] = test: bridging ECL in NHP serum; Renzo-1 125 ng/mL, signal with 1 µg/mL free EDI200 over signal without (Table 17)
EDI200 (human) [21] = test: bridging ECL in NHP serum; Renzo-1 15.63 ng/mL, signal with 1 µg/mL free EDI200 over signal without (Table 17)
EDI200 (human) [22] = test: bridging ECL (biotin-EDI200/SulfoTag-EDI200) in NHP serum; Renzo-1 62.5 ng/mL

sensitivity (lowest antibody concentration with mean signal above the plate NCO) (EDI200 (human) [1]): 62.5 ng/mL
Mean Signal (EDI200 (human) [2]): 81 signal (ECL)
Drug/Non-drug Ratio (EDI200 (human) [3]): 0.18
Mean Signal (EDI200 (human) [4]): 89 signal (ECL)
Mean Signal (EDI200 (human) [5]): 129 signal (ECL)
Mean Signal (EDI200 (human) [6]): 102 signal (ECL)
Drug/Non-drug Ratio (EDI200 (human) [7]): 0.91
Drug/Non-drug Ratio (EDI200 (human) [8]): 0.43
Mean Signal (EDI200 (human) [9]): 85 signal (ECL)
Drug/Non-drug Ratio (EDI200 (human) [10]): 0.18
Mean Signal (EDI200 (human) [11]): 89 signal (ECL)
Mean Signal (EDI200 (human) [12]): 495 signal (ECL)
Mean Signal (EDI200 (human) [13]): 306 signal (ECL)
Mean Signal (EDI200 (human) [14]): 75 signal (ECL)
Mean Signal (EDI200 (human) [15]): 171 signal (ECL)
Mean Signal (EDI200 (human) [16]): 949 signal (ECL)
Mean Signal (EDI200 (human) [17]): 78 signal (ECL)
Mean Signal (EDI200 (human) [18]): 80 signal (ECL)
Drug/Non-drug Ratio (EDI200 (human) [19]): 0.62
Drug/Non-drug Ratio (EDI200 (human) [20]): 0.28
Drug/Non-drug Ratio (EDI200 (human) [21]): 0.77
Mean Signal (EDI200 (human) [22]): 176 signal (ECL)
Substance: Mouse monoclonal (Renzo-1) to EDA (antibody)
